{
  "source": "patent US20220387586A1",
  "about": "(Hoffmann-La Roche, published 2022)",
  "binders": {"B1": {"name": "PD1/LAG3 0725 (bispecific antibody, human IgG1, kappa, L234A L235A)", "heavy 1": "not shown", "heavy 2": "DKTHTCPPCPAPEAAGGPSVFLFPPKPKDTLMISRTPEVTCVVVDVSHEDPEVKFNWYVDGVEVHNAKTKPREEQYNSTYRVVSVLTVLHQDWLNGKEYKCKVSNKALGAPIEKTISKAKGQPREPQVCTLPPSRDELTKNQVSLSCAVKGFYPSDIAVEWESNGQPENNYKTTPPVLDSDGSFFLVSKLTVDKSRWQQGNVFSCSVMHEALHNHYTQKSLSLSPGKGGGGSGGGGSEVQLLESGGGLVQPGGSLRLSCAASGFIFDDYTMNWVRQAPGKGLEWVAVISWDGGGTYYTDSVKGRFTISRDDFKNTLYLQMNSLRAEDTAVYYCAKGLTDTTLYGSDYWGQGTLVTVSSASTKGPSVFPLAPSSKSTSGGTAALGCLVEDYFPEPVTVSWNSGALTSGVHTFPAVLQSSGLYSLSSVVTVPSSSLGTQTYICNVNHKPSNTKVDEKVEPKSC", "light 1": "EVQLLESGGGLVQPGGSLRLSCAASGFSFSSYTMSWVRQAPGKGLEWVATISGGGRDIYYPDSVKGRFTISRDNSKNTLYLQMNSLRAEDTAVYYCVLLTGRVYFALDSWGQGTLVTVSSASVAAPSVFIFPPSDEQLKSGTASVVCLLNNFYPREAKVQWKVDNALQSGNSQESVTEQDSKDSTYSLSSTLTLSKADYEKHKVYACEVTHQGLSSPVTKSFNRGEC", "light 2": "not shown", "notes": "1+1 trans format: LAG3 Fab fused to the C-terminus of the Fc hole chain"}, "B2": {"name": "PD1/LAG3 1252 (bispecific antibody, human IgG1, kappa, L234A L235A)", "heavy 1": "not shown", "heavy 2": "QVQLQQWGAGLLKPSETLSLTCAVYGGSFSDYYWNWIRQPPGKGLEWIGEINHNGNTNSNPSLKSRVTLSLDTSKNQFSLKLRSVTAADTAVYYCAFGYSDYEYNWFDPWGQGTLVTVSSASTKGPSVFPLAPSSKSTSGGTAALGCLVEDYFPEPVTVSWNSGALTSGVHTFPAVLQSSGLYSLSSVVTVPSSSLGTQTYICNVNHKPSNTKVDEKVEPKSCDKTHTCPPCPAPEAAGGPSVFLFPPKPKDTLMISRTPEVTCVVVDVSHEDPEVKFNWYVDGVEVHNAKTKPREEQYNSTYRVVSVLTVLHQDWLNGKEYKCKVSNKALGAPIEKTISKAKGQPREPQVCTLPPSRDELTKNQVSLSCAVKGFYPSDIAVEWESNGQPENNYKTTPPVLDSDGSFFLVSKLTVDKSRWQQGNVFSCSVMHEALHNHYTQKSLSLSPGK", "light 1": "DIVMTQSPDSLAVSLGERATINCKASESVDTSDNSFIHWYQQKPGQSPKLLIYRSSTLESGVPDRFSGSGSGTDFTLTISSLQAEDVAVYYCQQNYDVPWTFGQGTKVEIKSSASTKGPSVFPLAPSSKSTSGGTAALGCLVKDYFPEPVTVSWNSGALTSGVHTFPAVLQSSGLYSLSSVVTVPSSSLGTQTYICNVNHKPSNTKVDKKVEPKSC", "light 2": "not shown", "notes": "2+1 format: two LAG3 Fabs, one PD1 crossFab fused to the C-terminus of the Fc knob heavy chain"}},
  "key": {"[1]": {"target": "T1, full-length human PD1 on cells (human, UniProt Q15116 25-288)", "T1 sequence (Q15116 25-288 limits assumed)": "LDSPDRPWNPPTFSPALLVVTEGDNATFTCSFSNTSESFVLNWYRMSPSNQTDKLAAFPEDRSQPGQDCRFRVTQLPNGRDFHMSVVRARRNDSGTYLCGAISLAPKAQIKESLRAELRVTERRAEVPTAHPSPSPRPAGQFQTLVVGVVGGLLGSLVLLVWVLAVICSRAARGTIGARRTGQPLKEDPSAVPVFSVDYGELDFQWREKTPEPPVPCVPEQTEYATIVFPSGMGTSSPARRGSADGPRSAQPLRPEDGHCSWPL", "assay": "cell-based or functional assay"}, "[2]": {"target": "T2, LAG3 on cells (recombinant CHO cells expressing Lag3) (human, UniProt P18627 29-525)", "T2 sequence": "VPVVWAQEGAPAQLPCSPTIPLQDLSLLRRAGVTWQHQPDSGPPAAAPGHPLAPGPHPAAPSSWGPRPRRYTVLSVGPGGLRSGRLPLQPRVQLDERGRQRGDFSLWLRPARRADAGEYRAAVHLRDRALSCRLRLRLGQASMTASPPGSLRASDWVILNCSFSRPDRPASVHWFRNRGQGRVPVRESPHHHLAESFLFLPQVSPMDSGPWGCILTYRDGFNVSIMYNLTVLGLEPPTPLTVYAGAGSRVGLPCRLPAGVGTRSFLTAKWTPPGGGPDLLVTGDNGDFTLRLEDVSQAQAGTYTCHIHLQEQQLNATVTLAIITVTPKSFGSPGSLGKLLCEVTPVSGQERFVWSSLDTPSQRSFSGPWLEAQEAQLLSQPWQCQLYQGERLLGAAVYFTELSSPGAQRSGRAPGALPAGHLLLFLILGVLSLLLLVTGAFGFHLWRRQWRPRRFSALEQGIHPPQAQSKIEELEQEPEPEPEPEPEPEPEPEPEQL", "assay": "cell-based or functional assay"}, "[3]": {"target": "T3, PD1 on PD1+LAG3+ human U2OS cells (UniProt Q15116 25-288)", "T3 sequence (Q15116 25-288)": "as the sequence (Q15116 25-288 limits assumed) above", "assay": "cellular PD1/LAG3 dimerization assay, 7500 PD1+LAG3+ U2OS cells a well, 20 h at 37 °C, chemoluminescence; the signal needs PD1 and LAG3 bound at once", "description": "Next, assay plates were equilibrated to room temperature and a substrate/buffer mix (PathHunterFlash detection reagent, Discoverx) was added and again incubated for 4h. For measuring chemoluminescence induced upon simultaneous binding and dimerization a SpectraMax L plate reader (Molecular Devices) was used."}, "biotinylated-Lag3": {"target": "T4, biotinylated-Lag3 (UniProt P18627 23-450, limits assumed, biotinylated)", "T4 construct": "Probably a human LAG3 ECD construct; also called Lag3 (MHCII/ELISA)", "T4 sequence (looked up)": "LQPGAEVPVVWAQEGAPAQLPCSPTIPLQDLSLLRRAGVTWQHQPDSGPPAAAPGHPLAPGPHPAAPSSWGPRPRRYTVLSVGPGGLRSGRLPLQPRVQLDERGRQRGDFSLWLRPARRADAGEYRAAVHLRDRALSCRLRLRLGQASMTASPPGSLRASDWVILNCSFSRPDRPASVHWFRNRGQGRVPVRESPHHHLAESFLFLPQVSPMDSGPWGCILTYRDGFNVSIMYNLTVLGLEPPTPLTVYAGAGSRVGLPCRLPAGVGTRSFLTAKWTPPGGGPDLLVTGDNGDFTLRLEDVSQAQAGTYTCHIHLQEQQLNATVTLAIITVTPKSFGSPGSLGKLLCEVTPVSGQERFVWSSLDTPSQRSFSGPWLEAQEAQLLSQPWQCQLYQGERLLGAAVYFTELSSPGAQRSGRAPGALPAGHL", "assay": "ELISA, inhibition of biotinylated-Lag3 binding to MHC-II on A375 cells (competitor MHC-II)", "description": "25 μl/well of A375 cells (10000 cells/well) were seeded into tissue culture treated 384-well plates (Corning, 3701) and incubated at 37° C. overnight. […] After washing (1×90 μl in PBST) cells were fixed by addition of 30 μl/well glutaraldehyde to a final concentration of 0.05% (Sigma Cat.No: G5882), 10 min at room temperature. After washing (3×90 μl/well with PBST-buffer) 25 μl/well Poly-HRP40-Streptavidin (Fitzgerald, 65R-S104PHRPx) was added in a 1:2000 or 1:8000 dilution and incubated at RT for 1 h. After washing (3×90 μl/well with PBST-buffer) 25 μl/well TMB substrate (Roche, 11835033001) was added and incubated for 2 to 10 min. Measurement took place on a Tecan Safire 2 instrument at 370/492 nm."}, "[4]": {"target": "T1, full-length human PD1 on cells", "assay": "cell ELISA on CHO-K1 cells expressing full-length human PD1 (rel. EC50)", "description": "(to avoid internalization). After washing carefully (1×90 μl/well PBST) cells were fixed by adding 30 μl/well 0.05% Glutaraldehyde (Sigma, Cat.No: G5882, 25%) diluted in 1×PBS-buffer and incubated for 10 min at RT. After washing (3×90 μl/well PBST) 25 μl/well secondary antibody was added for detection: goat-anti-human H+L-POD (JIR, JIR109-036-088)/Sheep-anti-mouse-POD (GE NA9310) followed by 1 h incubation at RT on shaker. After washing (3×90 μl/well PBST) 25 μl/well TMB substrate solution (Roche 11835033001) was added and incubated until OD 1.0-2.0. Plates were measured at 370/492 nm."}, "[5]": {"target": "T3, PD1 on PD1+LAG3+ human U2OS cells", "assay": "cellular PD1/LAG3 dimerization assay on PD1+LAG3+ U2OS cells, chemoluminescence; the signal needs PD1 and LAG3 bound at once", "description": "(§1) For this specific interaction, the cytosolic C-terminal ends of both receptors were individually fused to heterologous subunits of a reporter enzyme.\n(§2) On the next day cell medium was discarded and replaced by fresh medium. Antibody or ligand dilutions were prepared and titrated amounts of indicated (bispecific) antibodies were added and incubated at 37° C. for 2 hours. Next, a substrate/buffer mix (e.g. PathHunterFlash detection reagent) was added and again incubated for 1h. For measuring chemoluminescence induced upon simultaneous binding and dimerization a Tecan infinite reader was used."}, "[6]": {"target": "T5, LAG3 on PD1+LAG3+ human U2OS cells (Homo sapiens (Human), UniProt P18627 23-525)", "T5 construct": "also called cellular LAG3 (dimerization assay); not shown: subunit of the reporter enzyme fused to the cytosolic C-terminus", "T5 sequence": "T2 sequence", "assay": "cellular PD1/LAG3 dimerization assay on PD1+LAG3+ U2OS cells, chemoluminescence; the signal needs PD1 and LAG3 bound at once", "description": "as §1, §2"}, "[7]": {"target": "T2, LAG3 on cells (recombinant CHO cells …)", "assay": "cell ELISA on recombinant CHO cells expressing Lag3 (rel. EC50)", "description": "After washing (1×90 μl in PBST) cells were fixed by addition of 30 μl/well glutaraldehyde to a final concentration of 0.05% (Sigma Cat.No: G5882), 10 min at room temperature. After washing (3×90 μl/well with PBST-buffer) 25 μl/well goat anti-Human Ig κ chain antibody-HRP conjugate (Milipore, AP502P) was added in a 1:1000 dilution and incubated at RT for 1 h. After washing (3×90 μl/well with PBST-buffer) 25 μl/well TMB substrate (Roche, 11835033001) was added and incubated for 6-10 min. Measurement took place on a Tecan Safire 2 instrument at 370/492 nm."}, "[8]": {"target": "T6, biotinylated PD1-ECD-AviHis (human, UniProt Q15116 25-170, biotinylated)", "T6 construct": "also called huPD1; hu PD1; not shown: Avi-His tag", "T6 sequence (Q15116 25-170)": "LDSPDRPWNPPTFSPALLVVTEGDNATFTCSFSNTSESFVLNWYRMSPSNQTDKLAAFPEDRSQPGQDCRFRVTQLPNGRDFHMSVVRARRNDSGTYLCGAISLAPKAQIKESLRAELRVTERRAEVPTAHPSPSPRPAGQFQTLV", "assay": "ELISA on coated biotinylated PD1-ECD-AviHis (rel. EC50)", "description": "After washing (3×90 μl/well with PBST-buffer) 25 μl/well goat-anti-human H+L-POD (JIR, JIR109-036-098) was added in 1:5000 dilution and incubated at RT for 1 h on a shaker. After washing (3×90 μl/well with PBST-buffer) 25 μl/well of TMB substrate (Roche, 11835033001) was added and incubated until OD 2-3. Measurement took place at 370/492 nm."}, "[9]": {"target": "T7, recombinant Human LAG-3 Fc Chimera Protein (R&D Systems, 2319-L3) (human, UniProt P18627 29-450)", "T7 construct": "Bought protein; also called huLAG3; not shown: Fc part of the chimera", "T7 sequence": "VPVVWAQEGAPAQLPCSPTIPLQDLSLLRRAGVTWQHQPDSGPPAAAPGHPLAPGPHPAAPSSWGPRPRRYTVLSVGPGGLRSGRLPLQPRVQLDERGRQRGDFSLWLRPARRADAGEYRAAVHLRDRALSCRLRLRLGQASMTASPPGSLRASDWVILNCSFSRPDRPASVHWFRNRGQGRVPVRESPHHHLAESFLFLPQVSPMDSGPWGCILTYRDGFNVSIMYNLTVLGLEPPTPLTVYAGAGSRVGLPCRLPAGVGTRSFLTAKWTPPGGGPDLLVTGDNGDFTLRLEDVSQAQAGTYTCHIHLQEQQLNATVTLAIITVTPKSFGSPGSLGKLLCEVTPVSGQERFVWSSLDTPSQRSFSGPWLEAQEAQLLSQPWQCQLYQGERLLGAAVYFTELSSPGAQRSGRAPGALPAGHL", "assay": "ELISA on coated Human LAG-3 Fc Chimera (rel. EC50)", "description": "After washing (3×90 μl/well with PBST-buffer) each well was incubated with 90 μl blocking buffer (PBS+2% BSA+0.05% Tween 20) for 1 h at room temperature. […] After washing (3×90 μl/well with PBST-buffer) 25 μl/well goat anti-Human Ig κ chain antibody-HRP conjugate (Milipore, AP502P) was added in a 1:2000 dilution and incubated at RT for 1 h. After washing (3×90 μl/well with PBST-buffer) 25 μl/well TMB substrate (Roche, 11835033001) was added and incubated for 2-10 min. Measurement took place on a Tecan Safire 2 instrument at 370/492 nm."}},
  "data": [
    {"binder": "B1", "values": [
      {"measurement": "EC50 [nM], PD-1 & LAG-3 combo reporter assay (NFAT luciferase)", "setting": "[1]", "result": 2.2, "unit": "nM"},
      {"measurement": "EC50 [nM], PD-1 & LAG-3 combo reporter assay (NFAT luciferase)", "setting": "[2]", "result": 2.2, "unit": "nM"},
      {"measurement": "EC50 (read off the curve)", "setting": "[3]", "result": "~0.06", "unit": "nM"}
    ]},
    {"binder": "B2", "values": [
      {"measurement": "IC50", "setting": "biotinylated-Lag3", "result": 0.47, "unit": "nM"},
      {"measurement": "EC50", "setting": "[4]", "result": 0.31, "unit": "nM"},
      {"measurement": "EC50 (read off the curve)", "setting": "[5]", "result": "~0.06", "unit": "µg/mL"},
      {"measurement": "EC50 (read off the curve)", "setting": "[6]", "result": "~0.06", "unit": "µg/mL"},
      {"measurement": "EC50", "setting": "[7]", "result": 0.64, "unit": "nM"},
      {"measurement": "EC50", "setting": "[8]", "result": 0.03, "unit": "nM"},
      {"measurement": "EC50", "setting": "[9]", "result": 0.02, "unit": "nM"}
    ]}
  ]
}
